For series [1], the target named is T1, rCviUPO (C. virescens UPO) (Achaetomiella virescens, UniProt Z9FBJ6W4Y2, F87L, form not given).
T1 construct: codon-optimised gene in pET23a, untagged, soluble in E. coli C41; 29,616 Da calculated, 52 kDa by SEC (most probably dimer); heme-thiolate
T1 sequence (Z9FBJ6W4Y2 1-226 F87L): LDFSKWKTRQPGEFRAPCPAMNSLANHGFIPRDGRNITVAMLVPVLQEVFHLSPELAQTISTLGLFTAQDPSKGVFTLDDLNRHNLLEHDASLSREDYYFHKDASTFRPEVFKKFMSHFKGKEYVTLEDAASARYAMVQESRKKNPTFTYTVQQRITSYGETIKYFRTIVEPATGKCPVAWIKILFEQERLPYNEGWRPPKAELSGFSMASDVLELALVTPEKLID
The series can be described thus: veratraldehyde formation at […] nm. It is filed as biochemical. The conditions noted are these: 1 mM H2O2, 0.1 M acetate, optimal pH (Fig. S10), 25°C.

In series [2] the target is T2, rCviUPO (C. virescens UPO) (Achaetomiella virescens, UniProt Z9FBJ6W4Y2).
T2 construct: codon-optimised gene in pET23a, untagged, soluble in E. coli C41; 29,616 Da calculated, 52 kDa by SEC (most probably dimer); heme-thiolate
T2 sequence (Z9FBJ6W4Y2 1-226): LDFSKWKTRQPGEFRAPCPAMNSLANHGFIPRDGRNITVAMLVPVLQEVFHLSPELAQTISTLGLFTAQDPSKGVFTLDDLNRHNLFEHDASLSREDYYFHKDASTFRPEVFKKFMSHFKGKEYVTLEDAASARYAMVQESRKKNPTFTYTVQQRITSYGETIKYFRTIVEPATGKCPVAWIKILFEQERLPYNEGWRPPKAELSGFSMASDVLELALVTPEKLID
Briefly: veratraldehyde formation at […] nm. The format is biochemical. The settings on record: 1 mM H2O2, 0.1 M acetate, optimal pH (Fig. S6), 25°C.

The target of series [3] is T3, rDcaUPO (D. caldariorum UPO) (Daldinia caldariorum, UniProt A0AAN0NP18).
T3 construct: codon-optimised gene in pET28, poly-His tag (thrombin-cleavable, no effect on activity), soluble in E. coli C41; 29,609 Da calculated, 55 kDa by SEC (most probably dimer)
The series can be described thus: veratraldehyde formation at […] nm, substrate inhibition model. It is filed as biochemical. The conditions noted are these: 1 mM H2O2, 0.1 M acetate, optimal pH (Fig. S6), 25°C.

Series [4] addresses T4, rCviUPO (C. virescens UPO) (Achaetomiella virescens, UniProt Z9FBJ6W4Y2, T157F, form not given).
T4 construct: codon-optimised gene in pET23a, untagged, soluble in E. coli C41; 29,616 Da calculated, 52 kDa by SEC (most probably dimer); heme-thiolate
T4 sequence (Z9FBJ6W4Y2 1-226 T157F): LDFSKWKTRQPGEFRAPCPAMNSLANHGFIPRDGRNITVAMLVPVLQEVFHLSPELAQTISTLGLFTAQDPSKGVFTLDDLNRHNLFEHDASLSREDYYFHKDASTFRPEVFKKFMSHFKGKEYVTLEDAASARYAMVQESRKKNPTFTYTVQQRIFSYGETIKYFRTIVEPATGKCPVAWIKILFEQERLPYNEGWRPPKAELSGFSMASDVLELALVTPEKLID
Briefly: veratraldehyde formation at […] nm. It is filed as biochemical. The settings on record: 1 mM H2O2, 0.1 M acetate, optimal pH (Fig. S10), 25°C.

Series [5] addresses T4, rCviUPO (C. virescens UPO). Briefly: benzaldehyde formation at […] nm. The format is biochemical. The settings on record: 1 mM H2O2, 0.1 M Tris, optimal pH (Fig. S10), 25°C.
In series [6] the target is T1, rCviUPO (C. virescens UPO). Briefly: benzaldehyde formation at […] nm. It is filed as biochemical. The conditions noted are these: 1 mM H2O2, 0.1 M Tris, optimal pH (Fig. S10), 25°C.
Series [7] has as its target T3, rDcaUPO (D. caldariorum UPO). The series can be described thus: benzaldehyde formation at […] nm, substrate inhibition model. The format is biochemical. The conditions noted are these: 1 mM H2O2, 0.1 M Tris, optimal pH (Fig. S6), 25°C.
Series [8] has as its target T2, rCviUPO (C. virescens UPO). Briefly: benzaldehyde formation at […] nm, Hill fit. It is filed as biochemical. The settings on record: 1 mM H2O2, 0.1 M Tris, optimal pH (Fig. S6), 25°C; sigmoidal, nH 1.6 ± 0.2.
Series [9] deals with recombinant Daldinia caldariorum unspecific peroxygenase (Daldinia caldariorum). Briefly: SEC; Sepharose 12 10/300 column, 10 mM Tris (pH 7.4) with 0.15 M NaCl, calibrated with ferritin, aldolase, bovine serum albumin, ovalbumin, carbonic anhydrase and aprotinin; native mass compared with SDS-PAGE under reducing conditions.
Substrate in series [10]: CCn1c(=NN=c2sc3cc(S(=O)(=O)O)ccc3n2CC)sc2cc(S(=O)(=O)O)ccc21
The series can be described thus: purified protein. The settings on record: 1 mM H2O2, 0.1 M acetate, optimal pH (Fig. S6), 25°C. The format is biochemical, Daldinia caldariorum.

Substrate in series [11]: COc1ccc(CO)cc1OC
The series can be described thus: purified protein. It is filed as biochemical, Daldinia caldariorum. The settings on record: 1 mM H2O2, 0.1 M acetate, optimal pH (Fig. S6), 25°C.

Substrate in series [12]: OCc1ccccc1
Briefly: purified protein. The conditions noted are these: 1 mM H2O2, 0.1 M Tris, optimal pH (Fig. S6), 25°C. It is filed as biochemical, Daldinia caldariorum.

Substrate in series [13]: c1ccc2ccccc2c1
The series can be described thus: purified protein. It is filed as biochemical, Daldinia caldariorum. The settings on record: 1 mM H2O2, 0.1 M tartrate with 5% ethanol, optimal pH (Fig. S6), 25°C, Methods say Hill fit, Results say Michaelis-Menten.

Series [14] concerns the molecule itself. The series can be described thus: SEC; Sepharose 12 10/300 column, 10 mM Tris (pH 7.4) with 0.15 M NaCl, calibrated with ferritin, aldolase, bovine serum albumin, ovalbumin, carbonic anhydrase and aprotinin; native mass compared with SDS-PAGE under reducing conditions. On the technique in general: In gel filtration, larger molecules generally elute earlier.

What is called Km is the substrate concentration at which the rate is half of its maximum. `COc1ccc(CO)cc1OC` [veratryl alcohol]: the Km in series [1] was found to be 1150 µM; in series [2], 2940 µM; in series [4], 3970 µM. Moreover, the “Ki (μM)” value in series [3] is 45,400 ± 7,000 μM.
Consider `OCc1ccccc1` [benzyl alcohol], for which the Km in series [5] is 1870 µM; in [6] it was 623 ± 111 µM; in [8], 7100 µM. Besides, in [7], the “Ki (μM)” value is on record as 9,280 ± 2,270 μM.
The term stoichiometry N denotes a count of units in the complex or per binding partner. Regarding “recombinant Daldinia caldariorum unspecific peroxygenase (enzyme)”, the stoichiometry N in series [9] worked out at 2.

B1: rDcaUPO (D. caldariorum UPO) (Daldinia caldariorum) (protein)
chain: MAPWKAPGPDDVRGPCPMLNTLANHGFLPHDGKNIDVNTTVNALSSALNLDDELSRDLHTFAVTTNPQPNATWFSLNHLSRHNVLEHDASLSRQDAYFGPPDVFNAAVFNETKAYWTGDIINFQMAANALTARLMTSNLTNPEFSMSQLGRGFGLGETVCYVTILGSKETRTVPKAFVEYLFENERLPYELGFKKMKSALTEDELTTMMGEIYSLQHLPESFTKPFAKRSEAPFEKRAEKRCPFH
notes: codon-optimised gene in pET28, poly-His tag (thrombin-cleavable, no effect on activity), soluble in E. coli C41; 29,609 Da calculated, 55 kDa by SEC (most probably dimer)
Broadly, the kcat is the maximal rate divided by the concentration of active sites. The term kcat/Km denotes the second-order rate constant that governs catalysis at low substrate concentration. Turning to B1, the Km in “purified protein [10]” is 59 ± 6 µM; in the series “purified protein [11]”, 160 ± 22 µM; in the series “purified protein [12]” it was 179 ± 36 µM; in “purified protein [13]” it was 332 ± 81 µM. The kcat in “purified protein [10]” turned out to be 6.73 ± 0.14 s⁻¹; in the series “purified protein [11]”, 2.39 ± 0.09 s⁻¹; in “purified protein [12]”, 16.1 ± 1.19 s⁻¹; in the series “purified protein [13]”, 22.1 ± 1.92 s⁻¹. The kcat/Km in “purified protein [10]” was 114000 ± 10500 M⁻¹ s⁻¹; in “purified protein [11]”, 14800 ± 2100 M⁻¹ s⁻¹; in the series “purified protein [12]”, 90000 ± 19000 M⁻¹ s⁻¹; in “purified protein [13]”, 66800 ± 17300 M⁻¹ s⁻¹.

B2: recombinant Collariella virescens unspecific peroxygenase (enzyme)
chain: ALDFSKWKTRQPGEFRAPCPAMNSLANHGFIPRDGRNITVAMLVPVLQEVFHLSPELAQTISTLGLFTAQDPSKGVFTLDDLNRHNLFEHDASLSREDYYFHKDASTFRPEVFKKFMSHFKGKEYVTLEDAASARYAMVQESRKKNPTFTYTVQQRITSYGETIKYFRTIVEPATGKCPVAWIKILFEQERLPYNEGWRPPKAELSGFSMASDVLELALVTPEKLID
Consider B2, for which the “stoichiometry N” value in series [14] turned out to be 2.

(Values after PMC7082571, “Two New Unspecific Peroxygenases from Heterologous Expression of Fungal Genes in Escherichia coli” (Applied and Environmental Microbiology, 2020).)
